The record followed here is PMC10378331, “Structural and Kinetic Characterization of the SpeG Spermidine/Spermine N-acetyltransferase from Methicillin-Resistant Staphylococcus aureus USA300” (Cells, 2023).

Substrate in series [1]: CC(=O)SCCNC(=O)CCNC(=O)[C@H](O)C(C)(C)COP(=O)(O)OP(=O)(O)OC[C@H]1O[C@@H](n2cnc3c(N)ncnc32)[C@H](O)[C@@H]1OP(=O)(O)O
The series is described as follows: DTNB colorimetric CoA assay, discontinuous. Format: biochemical, Staphylococcus aureus. The conditions noted are these: Assay 2, enzyme pre-incubated with spermine, co-substrate 1.5 mM spermine (acceptor and allosteric ligand), 70 mM Bicine pH 8.0, 20 mM NaCl, 0.005% Triton X-100, 22 °C, 22.0 °C. An excerpt: (§1) DTNB colorimetric CoA assay, discontinuous on SaSpeG

Substrate in series [2]: NCCCCNCCCN
The series is described as follows: DTNB colorimetric CoA assay, discontinuous. As to conditions: Assay 1 (standard), no pre-incubation with polyamine, 0.5 mM AcCoA, 70 mM Bicine pH 8.0, 20 mM NaCl, 37 °C, Hill fit. Format: biochemical, Staphylococcus aureus.
From the text: as §1

Series [3] concerns the molecule itself. The experiment in a line: crystal structure; ligand-free SaSpeG, 0.1 M NaCl, 0.1 M HEPES pH 8.0, 1.6 M ammonium sulfate; one protomer in the asymmetric unit; oligomer from symmetry-related proteins and PISA analysis.

B1: SaSpeG (Staphylococcus aureus subsp. aureus USA300) (protein)
chain: MKLRALEYSDLLFVHELNNEYSIMSYWFEEPYESLTELQHLFDKHLLDESERRFIVEDENQVVGIVELVEINYIHRNCEIQIIIKPEFSGKGYAKFAFEKAIIYAFNILNMHKIYLYVDADNKKAIHIYESQGFKTEGLLKEQFYTKGKYKDAYFMSLLKSEYIL
notes: E. coli BL21(DE3); dodecamer by PISA
The kcat is the number of substrate molecules converted per active site and unit of time at saturation. Usually kcat/Km stands for the second-order rate constant that governs catalysis at low substrate concentration. For B1, in series [1], the K0.5 was 0.29 ± 0.01 mM, the kcat was 390 s⁻¹ and the kcat/Km worked out at 1.3e+06 M⁻¹ s⁻¹. Besides, in series [2], the K0.5 is 4.0 ± 0.1 mM, the kcat stood at 3 s⁻¹ and the kcat/Km was found to be 750 M⁻¹ s⁻¹.

B2: SpeG spermidine/spermine N-acetyltransferase from Staphylococcus aureus USA300 (enzyme)
chain: MKLRALEYSDLLFVHELNNEYSIMSYWFEEPYESLTELQHLFDKHLLDESERRFIVEDENQVVGIVELVEINYIHRNCEIQIIIKPEFSGKGYAKFAFEKAIIYAFNILNMHKIYLYVDADNKKAIHIYESQGFKTEGLLKEQFYTKGKYKDAYFMSLLKSEYIL
notes: SpeG spermidine/spermine N-acetyltransferase, Staphylococcus aureus USA300, UniProt A0A0H2XGJ0; gene synthesized and cloned into pMCSG21 at the SspI site; monomer ~19.8 kDa; after TEV cleavage the residues SN would remain at the N-terminus; The number of copies differs by experiment: dodecamer from crystal symmetry and PISA, trimer/tetramer by SEC; also called SaSpeG; source: E. coli BL21 (DE3) …
The stoichiometry N is the number of molecules, sites or subunits per partner or assembly. With B2, the “stoichiometry N” value in series [3] is 12.
